The text below walks through data of PMC9879077.

In data set [1] the target is T1, c-Fos;c-Jun (mouse (cDNA from ST2 cells);mouse (cDNA …, UniProt P01101;P05627 1-380;1-334, |)). The data set can be described thus: EMSA. A general note: Mobility shift assays separate free from complexed probe on a gel.
The target of data set [2] is T1, c-Fos;c-Jun. The experiment in a line: EMSA. The source holds these as a separate data set.

Read-outs that look alike come from different tables or passages of the source.

T1 sequence (P01101 whole entry, chain 1 of 2): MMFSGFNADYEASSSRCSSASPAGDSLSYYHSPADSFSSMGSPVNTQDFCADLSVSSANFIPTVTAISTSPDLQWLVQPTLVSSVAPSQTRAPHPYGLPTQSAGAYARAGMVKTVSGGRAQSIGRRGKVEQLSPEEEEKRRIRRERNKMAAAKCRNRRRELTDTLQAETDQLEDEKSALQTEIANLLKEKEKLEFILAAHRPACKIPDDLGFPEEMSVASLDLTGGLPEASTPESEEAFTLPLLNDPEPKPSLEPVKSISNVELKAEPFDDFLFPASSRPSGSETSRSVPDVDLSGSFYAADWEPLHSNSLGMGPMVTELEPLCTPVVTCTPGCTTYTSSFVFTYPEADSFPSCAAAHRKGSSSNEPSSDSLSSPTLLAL
T1 sequence (P05627 whole entry, chain 2 of 2): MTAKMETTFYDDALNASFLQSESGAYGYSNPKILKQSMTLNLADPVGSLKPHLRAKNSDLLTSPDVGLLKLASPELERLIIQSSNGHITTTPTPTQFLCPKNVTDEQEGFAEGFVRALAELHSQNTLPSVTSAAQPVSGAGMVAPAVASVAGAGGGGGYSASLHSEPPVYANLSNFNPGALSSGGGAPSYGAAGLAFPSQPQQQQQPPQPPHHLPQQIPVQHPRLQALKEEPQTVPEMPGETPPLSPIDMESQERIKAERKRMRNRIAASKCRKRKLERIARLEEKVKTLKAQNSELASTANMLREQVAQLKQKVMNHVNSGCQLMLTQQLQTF

B1: Oligo incl mutant TRE (dsDNA)
DNA 1: TGTGACAATGTGACAGCTGTCACATTGTCACA
DNA 2: GGTGTGACAATGTGACAGCTGTCACATTGTCACA
As for B1, in data set [1], the binding result is “no binding”.

B2: Oligo incl TRE (dsDNA)
DNA 1: TGAGTCAATGAGTCAGCTGACTCATTGACTCA
DNA 2: GGTGAGTCAATGAGTCAGCTGACTCATTGACTCA
Consider B2, for which the binding result in data set [2] is reported as “binds”.
